Assays:
[1] = test system: HT-29 cells; assay: Non-specific binding (NSB) to HT-29 cells by FACS; type: cell-based, human; conditions: 100 μL of nanoprobes (2 μM) added to 100 μl 2% FBS/DPBS, 30 min at 37 °C, means±1 S.D.
Text: We next examined the non-specific binding (NSB) of PN’s to HT-29 cells based on the assumption that NSB minimization will correlate with a desirable minimization of post-IV injection retention. As noted above, after diagnostic drugs generate their added information, retention can only increase the risks of delayed toxicity. The attachment of PEG decreased the non-specific binding (NSB) to HT-29 cells, scored as the percent of cells above the cutoff for unstained cells seen with FACS ( Table 1 , column 7).
PN and peptide binding to cells (effect of PEGylation on NSB): HT-29, a human colon carcinoma cell line, was from the American Tissue Culture Collection and maintained according to their instructions. Cells were seeded on 24-well plates at 5X10^5 cells/well in culture medium (RPMI 1640 with 10% FBS) the day before the assay. The day of assay, medium was removed, wells rinsed twice with DPBS (+Ca, +Mg), and 100 μl of 2% FBS / DPBS (+Ca, +Mg) added. 100 μL of Nanoprobes (2 μM) in DPBS (+Ca, +Mg) was added to cells and incubated for 30min at 37 °C. (Probe concentrations were determined spectrophotometrically (783 nm, extinction coefficient of 314 471 cm^-1 M^-1 for IR-783; 497 nm, extinction coefficient of 68 000 cm^-1 M^-1 for Fluorescein; 545 nm, extinction coefficient of 150 000 cm^-1 M^-1 for Cy3). Cells were detached by Trypsin/EDTA and assayed for fluorescence by FACS (BD 7 laser LSR2 for nanoprobes with IR-783; BD 3 laser LSR2 for nanoprobes with Fluorescein or Cy3).
Figure S4: Effect of PEGylation on non-specific binding to cells by single channel FACS. […] Arrows indicates the cutoff for unstained cells.

[2] = Probe size (volume) by FPLC calibrated with globular protein standards; type: physicochemical; conditions: for Volume FPLC, globular protein equivalent molecular volume: Superdex 200 10/300GL, 0.05 M sodium phosphate, 0.1 M NaCl (0.1% Tween, pH 7.2), 0.8 ml/min, calibrated with globular protein standards; for Volume FPLC Dia. (diameter): globular protein equivalent volume from FPLC converted to spherical diameter by formula (ref 15)
Text: (§1) FPLC chromatograms are shown for PN’s bearing the IR-783 fluorochrome with PEG’s ranging from 2 to 40 kDa ( Figure 2A ). FPLC was calibrated with globular protein standards, and globular protein equivalent molecular volumes (in kDa) were obtained ( Table 1 , column 5). Next, these globular protein equivalent molecular volumes were converted to PN diameters in nm using the relationship: [drawing 1] where M is the molecular weight of a globular protein expressed in daltons. PN diameters ranged from 3.0 to 11.7 nm, which means PN’s can be smaller or larger than albumin (MW = 67 kDa; diameter = 5.4 nm, by the formula above). Thus Table 1 column 5 gives the PN volumes obtained from FPLC expressed in two ways: (i) as the molecular weight in kDa of globular proteins with equivalent volumes, permitting size comparison of PN’s to proteins, and, (ii) as spherical diameters (“Dia.”) in nm, permitting size comparisons of a PN to relative to other nanomaterials. We confirmed the sizes obtained with FPLC by measuring the size of PN(783)11.7 by dynamic light scattering (11.7 nm).
The mass spec of low molecular weight (MW) materials were obtained by MS-ESI Micromass (Waters) and high MW molecules were determined through MALDI-TOF analyses at the Tufts University Core Facility. RP-HPLC (Varian ProStar detector and delivery modules) employed an eluant A (0.1% TFA/water) and eluant B (0.1% TFA and 9.9% water in acetonitrile). Probe size (volume) was determined by FPLC using an ÄKTA Purifier 10 and SuperdexTM 200 10/300GL column (GE Healthcare) with a running buffer of 0.05 M sodium phosphate, 0.1 M NaCl (0.1% Tween, pH 7.2) and flow rate of 0.8 ml/min. Standards (GE Healthcare) were Ferritin, Ribonuclease A, Carbonic Anhydrase, and Conalbumin and Blue Dextran 2000. To obtain probe volumes, Mr (apparent molecular weight based on size exclusion retention) was plotted versus Kav. [drawing 7] , Vt = total volume, Ve = elution volume, Vo = void volume.
PN and peptide characterization: The mass spec of low molecular weights (MW) were obtained by MS-ESI Micromass (Waters) and high MW molecules were determined through MALDI-TOF analyses at the Tufts University Core Facility. RP-HPLC (Varian ProStar detector and delivery modules) employed an eluant A (0.1% TFA /water) and eluant B (0.1% TFA and 9.9% water in acetonitrile). […] Standards (GE Healthcare) were Ferritin, Ribonuclease A, Carbonic Anhydrase, and Conalbumin and Blue Dextran 2000. To obtain probe volumes, Mr (apparent molecular weight based on size exclusion retention) was plotted versus Kav. [picture] , Vt = total volume, Ve = elution volume, Vo = void volume.

[3] = Quantum yield of fluorochrome-bearing peptides and PN's; type: physicochemical; conditions: means±1 S.D.
Text: (The p values showing significances are in Figure S2 in File S1). […] PEG attachment increased quantum yields in all cases, but as discussed below the magnitude of PEG generated improvement varied with the fluorochrome chosen. A mechanism for the PEG improvement of quantum yield is fluorochrome shielding, or the blocking of fluorochrome-fluorochrome interactions that result in quenching.
However, the magnitude of these benefits varied with the fluorochrome selected. […] Previous studies indicated PEGylated, fluorochrome-bearing peptides have absorption spectra in PBS similar to their unstacked absorption spectra in methanol. […] It appears that longer wavelength fluorochromes have stronger fluorochrome/fluorochrome stacking interactions, which result in more quenching, which is blocked by PEG and which gives rise to larger increases in quantum yield.

[4] = Size by dynamic light scattering; type: physicochemical; conditions: Nano-ZS Zetasizer, z-average
Text: as §1
Size by dynamic light scattering: Size was obtained on a Nano-ZS Zetasizer (Malvern, Medford, MA) and is expressed as the z-average.

[5] = Circulating form of PN's: FPLC of sera of injected mice; type: in vivo; conditions: 20 nmoles IV tail vein, nude mice, FPLC at 783 nm
Procedure: To see if the variable PN size could be translated into tunable pharmacokinetics, it was essential to first establish that PN’s circulated at PEG-determined, pre-injection dimensions. Mice were injected with PN’s and FPLC chromatograms of serum samples, taken at various times post injection ( Figures 2D, 2E and 2F ), compared with pre-injection PN samples. By using PN’s absorbing at 783 nm, chromatograms from the sera of injected mice reflect this PN, since there are no compounds in serum that absorb at this wavelength. […] Similarly, peaks for PN(783)6.1 ( Figure 2E ) and PN(783)4.3 ( Figure 2F ) where identical for pre-injection samples and for nanoprobes in the sera of injected mice. Thus, molecular weight of the PEG chosen determines PN dimensions in vitro and those dimensions are maintained after injection.
(§2) At the indicated time, 50 µl of blood was collected with microhematocrit capillary tube (Fisher Scientific) from the tail, and transferred to Eppendorf microcentrifuge tube with anticoagulant (EDTA) coating (Fisher Scientific). Tubes were centrifuged (5000 rpm for 5 min), and the supernatant was injected to the FPLC, a ÄKTA Purifier 10 with SuperdexTM 200 10/300GL column.
as §2, with “μl” for “µl”

[6] = Elimination by whole animal surface fluorescence imaging; type: in vivo; conditions: mice, after injection, n = 6
Procedure: Surface fluorescence images for representative animals are shown and total surface fluorescence is quantified in bar graphs to the right of the image. […] The pharmacokinetics and biodistributions of these PN’s is further analyzed below.
Figure 3 Role PEG in determining elimination by surface fluorescence imaging. A) Animals were injected with unPEGylated peptide and imaged at the times indicated. Bar graph gives whole animal surface fluorescence determined as means and standard deviations, n = 6.
(§3) A Kodak FX multispectral imaging system was used (Carestream Molecular Imaging, Rochester, NY). Excitation at multiple wavelengths (620, 650, 690, 710, 720, 730, 750 and 760 nm) with the emission at 830 nm was setup for IR-783 spectrum; Excitation at multiple wavelengths (420, 440, 460, 480, 510, 520, 530, and 540 nm) with the emission at 600 nm was setup for Cy3 spectrum; Excitation at multiple wavelengths (450, 470, 510, 520, 530, 540, 550, 570, and 590 nm) with the emission at 700 nm was setup for mCherry; with manufacturer’s software to separate (unmix) the IR-783 spectrum, Cy3 spectrum, or mCherry spectrum from skin autofluorescence and chlorophyll fluorescence from food. X-ray images were taken after fluorescence images. […]
as §3, with “Whole animal surface fluorescence imaging: All animal experiments in this work were approved by the Institutional Review Committee of the Massachusetts General Hospital. […]” for “A Kodak FX multispectral imaging system was used (Carestream Molecular Imaging, Rochester, NY).”

Substance	Cell NSB: percent of HT-29 cells above the cutoff for unstained cells [1]	Volume FPLC, globular protein equivalent molecular volume [2]	Volume FPLC Dia. (diameter) [2]	Quant. Yield [3]	Size by dynamic light scattering [4]	Circulating size: FPLC peaks of serum samples after injection versus pre-injection sample [5]	Elimination seen by whole animal surface fluorescence [6]
(DOTA)Lys(PEG40 kDa)-Cys(IR-783) [PN(783)11.7, PEG-like Nanoprobe: 40 kDa PEG, IR-783 fluorochrome, DOTA peptide]	17±1%	690 kDa	11.7 nm	0.16±0.02	11.7 nm	–	–
(DOTA)Lys(PEG 2 kDa)-Cys(IR-783) [PN(783)3.0, PEG-like Nanoprobe: 2 kDa PEG, IR-783 fluorochrome, DOTA peptide]	50±1%	11.2 kDa	3.0 nm	0.13±0.02	–	–	–
(DOTA)Lys(PEG 5 kDa)-Cys(Cy3) [PN(545)4.3, PEG-like Nanoprobe: 5 kDa PEG, Cy3 fluorochrome, DOTA peptide]	31±1%	35 kDa	4.3 nm	0.59±0.09	–	–	–
(DOTA)Lys(PEG 5 kDa)-Cys(Fl) [PN(497)4.3, PEG-like Nanoprobe: 5 kDa PEG, fluorescein, DOTA peptide]	0.2±0.1%	35 kDa	4.3 nm	0.59±0.06	–	–	–
(DOTA)Lys(PEG 10 kDa)-Cys(IR-783) [PN(783)6.1, PEG-like Nanoprobe: 10 kDa PEG, IR-783 fluorochrome, DOTA peptide]	14±1%	100.7 kDa	6.1 nm	0.16±0.03	–	identical	–
(DOTA)Lys(PEG 20 kDa)-Cys(IR 783) [PN(783)8.4, PEG-like Nanoprobe: 20 kDa PEG, IR-783 fluorochrome, DOTA peptide]	14±1%	262.5 kDa	8.4 nm	0.16±0.04	–	–	–
(DOTA)Lys(PEG 30 kDa)-Cys(Cy3) [PN(545)10.0, PEG-like Nanoprobe: 30 kDa PEG, Cy3 fluorochrome, DOTA peptide]	15±1%	435 kDa	10.0 nm	0.61±0.10	–	–	–
(DOTA)Lys-Cys(Cy3) [unPEGylated DOTA peptide with Cy3 fluorochrome on the cysteine side chain]	98±1%	–	–	0.32±0.07	–	–	–
(DOTA)Lys-Cys(Fl) [unPEGylated DOTA peptide with fluorescein on the cysteine side chain]	0.4±0.1%	–	–	0.50±0.11	–	–	–
(DOTA)Lys-Cys(IR-783) [unPEGylated DOTA peptide with IR-783 fluorochrome on the cysteine side chain]	95±1%	–	–	0.053±0.008	–	–	slow and incomplete elimination

Reference: publication PMC4004541, “PEG-Like Nanoprobes: Multimodal, Pharmacokinetically and Optically Tunable Nanomaterials” (PLoS ONE, 2014)
